The values that follow come from publication PMC3474739, “Novel Frataxin Isoforms May Contribute to the Pathological Mechanism of Friedreich Ataxia” (PLoS ONE, 2012).

First the molecules themselves.
B1: frataxin isoform II (natural protein, human, UniProt Q16595 76-210, looked up)
chain: MNLRKSGTLGHPGSLDETTYERLAEETLDSLAEFFEDLADKPYTFEDYDVSFGSGVLTVKLGGDLGTYVINKQTPNKQIWLSSPSSGPKRYDWTGKNWVYSHDGVSLHELLAAELTKALKTKLDLSSLAYSGKDA
notes: human frataxin isoform II, 135 amino acids, 14.9 kDa, begins at the second AUG (methionine, 76th aa of the FXN precursor) and runs to the stop codon; Cloned into pET24a(+) with NdeI and XhoI sites; also called FXN II; FXN isoform II; source: E. coli BL21(DE3), purified
B2: frataxin isoform I, mature form (natural protein, human, UniProt Q16595 81-210, looked up)
chain: SGTLGHPGSLDETTYERLAEETLDSLAEFFEDLADKPYTFEDYDVSFGSGVLTVKLGGDLGTYVINKQTPNKQIWLSSPSSGPKRYDWTGKNWVYSHDGVSLHELLAAELTKALKTKLDLSSLAYSGKDA
notes: Cloned into pET24a(+) with NdeI and XhoI sites; also called FXN I; FXN isoform I; source: E. coli BL21(DE3), purified
B3: human ISCU, mitochondrial mature form (natural protein, UniProt Q9H1K1 35-167, looked up)
chain: YHKKVVDHYENPRNVGSLDKTSKNVGTGLVGAPACGDVMKLQIQVDEKGKIVDARFKTFGCGSAIASSSLATEWVKGKTVEEALTIKNTDIAKELCLPPVKLHCSMLAEDAIKAALADYKLKQEPKKGEAEKK
notes: human ISCU, mitochondrial mature form; source: E. coli BL21(DE3), purified

Test in all cases: SEC; purified ISCS/ISD11, ISCU and FXN isoform mixed at a molar ratio of 1:1:1, 1 h anaerobically at room temperature, then Superdex200 in 50 mM Tris, 200 mM NaCl, 5 µM PLP, pH 8.0; fractions analysed by SDS-PAGE
Common to all, as to details: both partners purified
(In general: SEC sorts molecules by how far they enter the pores of the column.)

One assay has as its target T1, ISCS/ISD11 (human, UniProt Q9Y697 56-457; Q9HD34 1-91).
T1 construct: human mitochondrial ISCS (NFS1) that misses the first 55 amino acids of the precursor (NFS1Δ1-55); human ISD11; Both chains in pACYCDuet-1; also called NFS1Δ1-55 with ISD11; source: E. coli, co-expressed (plasmid pZM90b), purified; also co-expressed with His-ISCU in E. coli BL21(DE3) or CL100(DE3), in lysate

In assay [1] the target is B3.
The assay “frataxin isoform II” has as its target B1.

T1 sequence (Q9Y697 56-457, chain 1 of 2): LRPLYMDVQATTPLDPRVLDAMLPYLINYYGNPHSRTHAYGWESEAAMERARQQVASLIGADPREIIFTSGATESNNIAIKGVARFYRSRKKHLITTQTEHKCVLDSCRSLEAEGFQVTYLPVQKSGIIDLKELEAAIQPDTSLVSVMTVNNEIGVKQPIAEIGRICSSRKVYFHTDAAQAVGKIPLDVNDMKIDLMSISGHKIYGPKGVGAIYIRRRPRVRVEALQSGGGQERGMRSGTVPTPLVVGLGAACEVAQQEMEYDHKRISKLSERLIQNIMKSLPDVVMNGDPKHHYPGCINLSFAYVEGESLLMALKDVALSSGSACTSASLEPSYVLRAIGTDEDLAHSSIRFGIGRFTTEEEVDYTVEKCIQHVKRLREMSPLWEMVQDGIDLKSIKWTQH
T1 sequence (Q9HD34 whole entry, chain 2 of 2): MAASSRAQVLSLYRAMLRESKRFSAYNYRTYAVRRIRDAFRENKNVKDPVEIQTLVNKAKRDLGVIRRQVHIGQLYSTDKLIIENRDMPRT

In the case of B1, in the assay with ISCS/ISD11, the binding result is recorded as “binds”.

With B2, the binding result (with ISCS/ISD11; in assay [1]) was “binds” in each case.

Regarding B3, the binding result with ISCS/ISD11 and in the assay with frataxin isoform II was “binds” each time.
